# Measured values: patent publication US20080279864A1
# B1: free NTB peptide (residues 1-95, without CFP fusion) (peptide)
# peptide: MVRFGDELGGRYGGPGGGERARGGGAGGAGGPGPGGLQPGQRVLYKQSIAQRARTMALYNPIPVKQNCFTVNRSLFVFSEDNVVRKYAKRITEWP
# Target: N-type (CaV2.2) Ca2+ channel (α1B with β2a and α2δ) in HEK293 cells (human; rat), Q00975
# Assay: cell-based or functional assay
# Sequence of N-type (CaV2.2) Ca2+ channel (α1B with β2a and α2δ) in HEK293 cells (human; rat), Q00975 (P54290 25-1091, stated change not applied, chain 3 of 2, other chains not shown): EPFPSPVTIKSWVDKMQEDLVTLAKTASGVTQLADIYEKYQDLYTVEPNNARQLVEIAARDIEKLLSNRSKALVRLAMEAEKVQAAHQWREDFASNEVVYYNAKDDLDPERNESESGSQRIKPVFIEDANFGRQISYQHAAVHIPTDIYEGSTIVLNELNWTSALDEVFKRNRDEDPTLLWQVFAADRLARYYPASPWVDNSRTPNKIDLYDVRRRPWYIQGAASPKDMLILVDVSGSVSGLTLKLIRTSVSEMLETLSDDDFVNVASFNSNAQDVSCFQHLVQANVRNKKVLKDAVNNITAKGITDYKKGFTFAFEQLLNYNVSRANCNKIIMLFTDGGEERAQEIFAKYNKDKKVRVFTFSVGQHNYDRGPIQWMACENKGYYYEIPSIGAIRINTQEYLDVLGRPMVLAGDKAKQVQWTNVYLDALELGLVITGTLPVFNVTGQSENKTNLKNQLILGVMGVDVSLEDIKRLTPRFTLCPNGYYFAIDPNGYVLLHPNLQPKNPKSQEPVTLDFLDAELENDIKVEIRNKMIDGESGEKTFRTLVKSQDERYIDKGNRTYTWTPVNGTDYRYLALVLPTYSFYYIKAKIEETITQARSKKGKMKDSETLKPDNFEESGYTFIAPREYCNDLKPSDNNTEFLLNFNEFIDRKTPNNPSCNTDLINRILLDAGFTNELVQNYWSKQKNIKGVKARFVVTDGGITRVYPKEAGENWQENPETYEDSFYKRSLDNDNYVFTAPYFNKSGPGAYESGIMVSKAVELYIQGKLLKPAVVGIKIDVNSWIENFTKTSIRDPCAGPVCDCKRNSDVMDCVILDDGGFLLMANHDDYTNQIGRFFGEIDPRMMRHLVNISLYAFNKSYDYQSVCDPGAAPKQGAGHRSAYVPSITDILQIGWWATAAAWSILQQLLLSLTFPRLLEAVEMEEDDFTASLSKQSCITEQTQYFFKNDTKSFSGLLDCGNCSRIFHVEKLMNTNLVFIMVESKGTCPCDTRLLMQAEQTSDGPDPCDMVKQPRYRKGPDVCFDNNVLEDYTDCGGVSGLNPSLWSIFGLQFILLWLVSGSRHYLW
binder,measurement,value
B1,"DF, degree of prepulse facilitation, free NTB with Gβγ",4
same,"conversion to constitutively reluctant channels, free NTB with Gβγ",75%
